Assay results published in the domain aggregation screens of Martell et al. (2025).

Assay: soluble fraction after stress (log2 fold change); higher = more stays soluble; pooled small domains, quantitative proteomics
Settings: stress: 75 degC
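Note: 20 min heating vs room temperature control held 20 min.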

Row | Sequence | soluble fraction (log2)
1 | HMGSQLYTLEVEADEKISLIENNPLLIQKIYLKDNNLFSYKIASSSKTEIASIEKELEKNPSIKRLETA | -0.086
2 | HMGSQQIEEGMRRLVASGALRPGASVPSVRDLARDLQVNPATVVRAYQRLVDAGLLVVRRGEGTFVAE | -1.77
3 | HMGSSLLSPKEREVLQLLAGNLSNKQIALAMGVSDETIKWHLRNLFGKLNAGGRKHLIDRARMLGLLAAA | -1.61
4 | HMGSVHDAATDRIREMILGGQFEPGERLRQDDLATSLGVSTMPVREALRQLQAEGLVVFYPRKGAVVAR | 0.168
5 | HMGTAEDYLLPRRAEILSIIRDHEFANFDLIRRRFLAVNERTLRYDLKKLSDLGLIKKLGKTRGVYYRAAK | -1.84
6 | HMGTAVKAPMPGTILKVNVTAGQSVKAGDIMFILEAMKMENEIVAPSDGTVSQVVAAKGSSVATDDVLAYL | -0.586
7 | HMGTDGLKDIVLEILKEHPNQLAELIDGKQKVLGFLVGQVMKKTNGAANPKEVNEIIQGEIKK | 0.179
8 | HMGTELSYSEFLNKVEAGEVTNVTIRGPEITFQTGNSSYTTYAPDDPKLIEHLTAKGVAIKAGP | 0.608
9 | HMGTGELLVHVIGAVHSPGVVRLPTGARVVDAIDAAGGAREDAQTEQLNLARLVDDGEQVRVPVVGESVD | 0.081
10 | HMGTGIKQVNVVSVIGQDEETAKTTLTNLGLKVNVTYATSTSDNGKVTKQSIDAGKTVDEGTSVTITVNKV | ≥ 1.04
11 | HMGTHSAEQVRAAIRAIVAAEDAANPLSDARITELLAMRGIAAARRTVMKYREQLGIPSSAKRRR | -1.94
12 | HMGTHVVQEGEYLDLIIEKTIPGSPIRKDLLRKAFVKLNPSAFGGRGNPNYIFARKKLKVPSVEDLKAVIF | 0.127
13 | HMGTIEEYSKYLINQYFDSLKKPMDAMTTSEKIEIVKSLDKKGIFNLKGSVGELAKRFNTSEKTIYRYLSS | -0.202
14 | HMGTKRWELPRRVQQMATQHGKSISTAAAEELVSRSGENTRMLDNDLVKLAQMVEAPQIELADVERWIVR | 0.207
15 | HMGTLPSLAPSGEKTVRLPNLAGWSLRETMEILQKGGLQLLPIGSGISFKQSPPPGTTLNEGDAVTVWF | 0.00884
16 | HMGTNTTGWIKIADDWKYIDSNGEYTVNDWRQSADGGWYYLGYNGNMLKNQTTPDGYYVDAEGLWDGMSPA | -0.54
17 | HMGTPEQVVVSSVLKETNEIVLKWPADGFMAKYKMDNLNLNFEPVHGQGVMGYFIGSRLIKLELV | -1.43
18 | HMGTPSAEELAFSAQKGNAVMRIMEIREKYIENGGQISDEERNEIERLIAIYYPKASIFDYLPMMG | -0.367
19 | HMGTSFEDIDRAVKSVRKPETDEAEKLHAGKTFKDIAETELFQKLTESFAGISDRVNEVIDLYTARAAE | 0.188
20 | HMGTSSAEIAAELRAQIFAGELRPGEMLPSAREITGTWNVAIATASRVHALLRSEGLATPVPGVGTVVAT | 0.223
21 | HMGTTAWISTKTANGSVNIRTGPGTGYGVIGWALNGDKLEVLSRGTSWHYVKLVKNGKIGYVSASYVSFTQ | -3.41
22 | HMGTTKGVVDVTVPNGRASQHVKLVVIDDDGGRVVYDGTNAPGDRIVKSVSGSGNVRVQIYLNNALVQEQS | -0.491
23 | HMGTTMLEVPNFVGEVFKEIDPEKYPNLRLVDSDYTYSNEYEAGKVISQDPVARTQVAEGSTVKLVIS | 0.319
24 | HMGTVISVDKARSIALAKVPGASANDIRIHLDRDDGRQIYEGEIYYNRMEYEFEIDASTGTIIEWSAEHW | -2.33
25 | HMGTVQSVDRALLLLSEIGREPGGLVDLSTRVRLATSTTGRILATLEHAGAVVRGDDGIYHIGPLVHGMVS | -2.04
26 | HMGTYSKQDLLQLIGRYPDGIGKREINLAFSKGTKIRNLLNIELNELLNERLITLSQGGLYIKP | -1.92
27 | HMGVAFAPVEKIKHTKTGNELYAVKLAGRVEAEVFGQLRQKAKEYDGYYSKFSRAFLFSTPEDAEAFRAE | -0.294

Row | Sequence | soluble fraction (log2)
28 | HMGVDIAEHDGQPAVSIRKGAAESVAQWVKDQGGTFPQEVEMTVQNVARAGGTPLVVARGRDVLGVIYLKD | -0.0119
29 | HMGVDKLTPREREVLALMAQGASNREIEGKLVLTAGAVSKHVANVFMKLGFSPEDENRRVKAVLAWLRTK | -2.86
30 | HMGVGIEALAVEVDRIRQVLTGGGALSDIQLFSQLKALGEVKTALSSMTDPRARELEKRVAQLLEASLRT | -0.708
31 | HMGVKHKHKGAGELLAALRTMFPNSSVSTLRKMLTQGRVVLNGEVVHRAKHELTDGDTIEVLERQRAER | 0.0384
32 | HMGVKIELNENEQAIFAAMQKQVEAVLPDLRAQFADMSNKAWDNSVKTLTKNNLLKVSKEAEILFIRL | -0.939
33 | HMGVKTDKYYYQMATETRVNKHYGLSNQYIATLISEYPRSPLIPNASILSKKNNADLALIDQSINQR | -0.515
34 | HMGVLSPRQSQILALVAQGLGNREIAERLHIAPTTARDHVQAIMRRLNVNSRAAAAVMGVKLGLI | -1.92
35 | HMGVNEGVNKLFKTIQETPGKRMPYYALATDVPEKTIERWLKQLREEGKIEFKGSAKTGGYFVIDK | -0.000624
36 | HMGVRDIRIFERNNSFFVNAEIRGEAQLSVPITRTDYQLFKENKIDALSLVEKYYAEELNASNEMK | 0.234
37 | HMGVSLNELAYRRFKQALVTLSYKPGEYLNTAQVMNDLDMGRTPINQAIHRLANEGLLQVIPRKGVMVS | -2.24
38 | HMGVTDLFAVLGFPRSPWLDAEELKQRHHALMADEASANSSPTILNEARRTLQNPALRIRHFLALEFPDH | -0.425
39 | HMGVYDLIYLGYGINVEKEELVDQNISIIRRYANIFDPNGDIKGSTNPTYASNTAVLFNEAKFIIDGYD | -3.7
40 | HMGWQPDPLTTRERLVAELATQASNAQIAEQLHLSVRTVEGHLAHVYTKLGITTRRELPAALAGAR | -1.55
41 | HMGWTTPAGIAVGMDKSVLQDAYGKEDDTFQDKGILYYQYFVHPSRMSGLSFGIKNDKIVSITAYMD | -2.02
42 | HMGYDDLEPFDANGRLRWSDQELVLAFGRHRGATLRTLELNDPSYLRWLLSGNGPLEQQDIQRLEQILES | -1.55
43 | HMGYDLLFQQALGFHEQGRLNEAENIYRQILETAPNNPDILNLLGLIAQQKGLHAQAVDYFYQAIRL | -1.89
44 | HMGYDVAEVKFRLIKLLRDSKIGISGVEISERLGINRVTMTKYLNIFSAEGVIGEKNIGNVNLWFVYEGIE | -1.62
45 | HMGYQLSLEAQSQLKALGLTSEYITRILDEADNRQPIPGTSRTVYSLNGYQVEFSHSDQQVIRIARG | -1.14
46 | HMGYSDEIGEFIKKLRTENHLTQKEFADKYGVTYQAVSKWENGKNLPDMSLIKQMSEDFNIGIDELLDGEK | -0.00865
47 | HMGYTLDVAHGVTEDMNFSEAFATAREEVGPGGIFYWHGKPYGTYYENEWNAMDEEDKAEYWDAVGRTTA | 0.0888
48 | HMHANSDVEQLMQMGIQRLNFQRYSDALLIFNQIIENFPDYAEAWNKRATLHYLLGNLDKSIADIEQTLE | -2.45
49 | HMHAPIAELKKVFKEEFADQEVTVRQLAGSVLLSGNVKTAELRENLESVAKQFFPRVINNLKLI | -0.444
50 | HMHDAKAEIIRLSALLTEYQRSYYIDGHSQVSDLEYDRLFDRLVALETSHPELREADSPTQRV | -0.917
51 | HMHDAKTQLQEEAARRGLPAPVYTRIGQEGPDHAPRFRVRADVGPHQAEAVAGSLKLAQAEAARAILRQMP | 0.132
52 | HMHDITPAVAETFKQLRAERGLSLSQAAQLTGVSKAMLGQIERGQSSPTVSTLWKIATGFNVAFSVFL | -2.56
53 | HMHDLGEQIIEKLRASGGISTLTDKSDPDAIYRQFKVSKKKYKQALGTLYKSRRITLAPNQIKLA | -0.293
54 | HMHDPLATLTPREHEVMSLMAEGRTNAAIAQALVIGTGAVEKNVTSIFQKLGLDDSGTDHRRVLAVLAWLQ | -2.13
